According to article PMC6399494:

How the values were obtained:
[1] = cell-surface biotinylation and confocal microscopy, HEK293; conditions: glycan gained; control: wild type full-length LDLR
[2] = immunoblot, Hepa1c1c7 lysate, normalised to actin; conditions: glycan gained; control: wild type full-length LDLR
[3] = immunoblot of mature LDLR form, HEK293; conditions: glycan lost; control: DMSO-treated cells

| Substance | localisation_or_trafficking [1] | expression_or_secretion [2] | localisation_or_trafficking [3] |
| --- | --- | --- | --- |
| LDL receptor (LDLR): D203N | no change | no change |  |
| LDL receptor (LDLR): tunicamycin, WT LDLR |  |  | no change |
